Reference: PMC2722939

Tested on: O=P(O)(O)O[C@@H]1O[C@H](CO)[C@@H](O)[C@H](O)[C@H]1O
Experiment: purified protein
Details: 5 μM βG1,6bisP, 2 mM MgCl2, 50 mM K+HEPES pH 7.0, 25 °C

Row | Substance | Km [µM] | kcat [s⁻¹] | kcat/Km [M⁻¹ s⁻¹]
1 | L. lactis β-PGM (wild type) (Lactococcus lactis subsp. lactis Il1403) | 31 ± 2 | 175 | 6e+06
2 | L. lactis β-PGM (wild type) (Lactococcus lactis subsp. lactis Il1403; H20A) | 41 ± 3 | 0.026 | 600
3 | L. lactis β-PGM (wild type) (Lactococcus lactis subsp. lactis Il1403; H20N) | 170 ± 10 | 0.62 | 4000
4 | L. lactis β-PGM (wild type) (Lactococcus lactis subsp. lactis Il1403; H20Q) | 45 ± 1 | 21.9 | 500000
5 | L. lactis β-PGM (wild type) (Lactococcus lactis subsp. lactis Il1403; K76A) | 66 ± 1 | 1.56 | 20000
6 | L. lactis β-PGM (wild type) (Lactococcus lactis subsp. lactis Il1403; T16P) | 4.8 ± 0.3 | 0.026 | 5000
